Measured values as given in the supplement of paper PMC9170038.

Tested on: MS2 coat protein
Assay: apparent KD of MS2 coat protein; designed switch direction (-1 OFF switch, 1 ON switch): -1; higher = weaker reporter binding
How it was run: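 Normalised cluster fluorescence was curve-fitted, and each design's median over clusters is its apparent KD. Before this, SNAP-549-labelled MS2 coat protein was titrated from 0.7 or 1.5 nM, doubling to 3 µM, over RNA switches transcribed on Illumina chips by stalled E. coli RNA polymerase. Titrations had no input, 200 uM small-molecule ligand, or an oligonucleotide input, and steps lasted 0.8–1.5 h (lowest) to 10–20 min (highest).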

[1] = input ligand: microRNA oligo, concentration not stated
[2] = Eterna round: R95, input ligand: FMN 200 uM
[3] = Eterna round: R95, input ligand: microRNA oligo, concentration not stated
[4] = Eterna round: R95, input ligand: none

Sequence | apparent KD of MS2 coat protein (input ligand: FMN 200 uM) [µM] | apparent KD of MS2 coat protein [1] [µM] | apparent KD of MS2 coat protein (input ligand: none) [µM] | apparent KD of MS2 coat protein [2] [µM] | apparent KD of MS2 coat protein [3] [µM] | apparent KD of MS2 coat protein [4] [µM]
AGAUGUAGAUACCGAUCCUACAUGAGGAUCACCCAUGUAGCUAGACGUGCGCGCGGCGCUCGUCAGACUACCAGUAG [salish99_TOv1_r3_093] (Eterna round: R96, puzzle: Sensor v3, turn-off variant 1) | 0.499 | 0.25 | 0.364 | – | – | –
GCAACUACGGAUCUCAUCAACAUGAGGAUCACCCAUGUAGAAUGCGUACAAGCUUUUUGUUCUGGCAUCCCAUAGUC [Eternabot (L2) Solution 35] (Eterna round: R97, puzzle: Sensor, turn-off variant 1) | 0.063 | – | 0.0653 | – | – | –
AAGUAUAGAGGAUAUAGUGAGUACUACAUGAGGAUCACCCAUGUUCUUCACAGCGUAUUUCUAGAAGGCUGUUAAA [EX-5 Malc#19] (puzzle: Exclusion 5) | – | – | – | 0.0296 | 0.0265 | 0.0264
CUCGUGCAGCAAAGCUGUACGAGUACAUGAGGAUCACCCAUGUAGGAUAUGGUACGCAAAGCGUGCUAGAAGGACGUGUGUAUG [Mat - Exclusion NG 3 - Mod of JL - D91] (Eterna round: R96, puzzle: Exclusion NG 3) | 0.134 | 0.0287 | 0.058 | – | – | –
AAUUUGUCAGGAUAUUGUUAGUUUAGUUGUUUGUAUUAGUUCGAGAAGGGACAUGAGGAUCACCCAUGUGAAAA [Ex4 #70] (Eterna round: R97, puzzle: Exclusion 4) | 0.0392 | – | 0.0534 | – | – | –
CCUGCACAUGAGGAUCACCCAUGUUAGGAUAUCUCGCCGCCUAAACGAAUGGUGGCCCAGAGAAGGAACAGGGC [Riatbege] (puzzle: Exclusion 1) | – | – | – | – | 0.0265 | –
GGCAUAAACGAGGAUAUCGAUACGGAAACGUAUCGAGAAGGUGUAACAUGAGGAUCACCCAUGUUCCUCAAGCC [Mat - Exclusion 6 - Eli Mod - D60] (puzzle: Exclusion 6) | – | – | – | – | 0.0291 | –
GGUUGGCGAGGAUAUACAUGAGGAUCACCCAUGUGAGAGGAAAAAGUGAGAACGAAAAGUAGAAGGCGCUGACG [salish99_ex3_r3_062] (puzzle: Exclusion 3) | – | – | – | 0.119 | 0.0789 | 0.225
UUUUAGCAAGCUAUUAUUAACAUGAGGAUCACCCAUGUGCAUCCAAAAUUACUUUUAGAUCUUGCUCGUCUUAUAUA [JR_STOV1_v2_Sub084] (Eterna round: R97, puzzle: Sensor, turn-off variant 1) | 1.26 | – | 1.6 | – | – | –
GUUGUGCGAGGAUAUAUGUGAGGUUUGCCUCAACAGGUAAUACAUGAGGAUCACCCAUGUAGAAGGCGCAUGAG [S1-(23.6);S2-(22.1) [87C]] (Eterna round: R96, puzzle: Exclusion 2) | 0.248 | 0.045 | 0.0639 | – | – | –
UGAGUGCUGCGAGGAUAUACAUGAGGAUCACCCAUGUAAUCGUGUGAGGCUUUGCCUCACACGAUGUAGAAGGCGCAGUACUCU [JL ENG2 1.09] (Eterna round: R96, puzzle: Exclusion NG 2) | 0.00984 | 0.00897 | 0.0119 | – | – | –
AAAAGCCAUGUUAGGAUAUGCAUGGCAGCUGCGAUGCAGAAGGAACAUGAGGAUCACCCAUGUGAACUUAAAUA [Anmaleus] (puzzle: Brourd's mod of Exclusion 4) | – | – | – | 0.0212 | 0.0162 | 0.0183
UUGUUCCAUUAUGAGAUCCACAUGAGGAUCACCCAUGUAGGAGUAACAAGCUUUGCUCGAUCUAUUUCAUGCUUCUG [Eternabot (L1) Solution 40] (Eterna round: R97, puzzle: Sensor, turn-off variant 1) | 0.0658 | – | 0.0806 | – | – | –
CUUCAGUCAGGAUAUCAUGAGCUCUGCCGACACGGGCUCGCUGAGAAGGGACAUGAGGAUCACCCAUGUAGACC [EX4 C.20] (Eterna round: R97, puzzle: Exclusion 4) | 0.132 | – | 0.0341 | – | – | –
UAGUGACAUGAGGAUCACCCAUGUGAGGAUAUAGUAGGAGUAAAGAGGAAAGAGAGAACUAGAAGGCACAGUGA [JR_Exclu1_Sub031] (puzzle: Exclusion 1) | – | – | – | 0.08 | 0.0484 | 0.0514
GAGAACGUAGGAUAUACAUGAGGAUCACCCAUGUGAGGAAGGAGUAGGAAGAGUGGAAGUAGAAGGACGAAGAG [JR_Exclu3_Sub071] (puzzle: Exclusion 3) | – | – | – | 0.0293 | 0.0363 | 0.0438
GCGAGGUUAGGAUAUGCUGGCGUGGACUUGAGGAUCACCCAAGUGACUGCGGGCUAGGGCGCAGAAGGGACAAAAU [Usti] (Eterna round: R97, puzzle: Exclusion 5) | 0.0451 | – | 0.0456 | – | – | –
GUAUACAAGCAAAGAUCCCACAUGAGGAUCACCCAUGUGCUCGUCUUAUAAGGUACUGUGACGAAAGUCACGGUACC [Mat - Sensor, turn-off var - Eli Mod - D103] (Eterna round: R97, puzzle: Sensor, turn-off variant 1) | 0.0429 | – | 0.043 | – | – | –
GCUGCAAAUGUAGGAUAUCUGCACGAUUAGUGCAGAGAAGGACAUGAGGAUCACCCAUGUAGAUCAGCAGCAAUUAAUUUAAUU [ENG1/5-A1] (Eterna round: R96, puzzle: Exclusion NG 1) | 0.413 | 0.0421 | 0.0415 | – | – | –
CGAUGAGGAGUGAGGAUAUCGUGUUCGAAAGAACGUGAGAAGGCACAUGAGGAUCACCCAUGUGAUCCUCAUCG [Omei Ex4B A21] (Eterna round: R97, puzzle: Brourd's mod of Exclusion 4) | 0.0298 | – | 0.0248 | – | – | –
AUCAUGUAAGGAUAUCUGACAAGUGACGAAAGUCACAGUUCAGAGAAGGUACAUGAGGAUCACCCAUGUAGAAC [Ex4-3: 42] (puzzle: Exclusion 4) | – | – | – | 0.0824 | 0.0513 | 0.0716
GGUGGACAUGAGGAUCACCCAUGUGAGGAUAUCGGCCGGCUCGUGGUGGCUGGCUUCUCGAGAAGGCGCAUAGU [Exclusion 1 V75] (puzzle: Exclusion 1) | – | – | – | – | 0.0506 | –
GAUCUGUGAGGAUAUUUAUCGUAGUGCGUGUAGCCUGCGCCGGAGAAGGCACAUGAGGAUCACCCAUGUUCUAA [Eternabot (L1) Solution 45] (Eterna round: R97, puzzle: Exclusion 4) | 0.0572 | – | 0.0518 | – | – | –
GCAGAUCAAGUGAGGAUAUGCUCUACCUCGGUAGAGCAGAAGGCACAUGAGGAUCACCCAUGUGAUUGAUCUGC [Omei Ex4B B5] (Eterna round: R97, puzzle: Brourd's mod of Exclusion 4) | 0.0269 | – | 0.0195 | – | – | –
UAUAACCGAGGAUAUACAUGAGGAUCACCCAUGUAAUGUAGUAUAAUAUAUGUAAAAUGUAGAAGGUGGGAUGU (Eterna round: R97, puzzle: Exclusion 3) | 0.0443 | – | 0.0549 | – | – | –
AAAUUAAUGGUAAGGAUAUGAUGCAGGAAACUGCGUCAGAAGGUACAUGAGGAUCACCCAUGUUAAACUAAUUU [Explosion 9 - Jieux - Brourd's mod of Exclusion 4] (Eterna round: R97, puzzle: Brourd's mod of Exclusion 4) | 0.0182 | – | 0.0142 | – | – | –
AAGUACCGUCACGAUAGUGAUGGUACAACAGGCAAAUGUACAUGAGGAUCACCCAUGUCCUCUUUUGCUCGUCUUAU [Sensor 3 - 99] (puzzle: Sensor v3, turn-off variant 2) | – | – | – | 0.0489 | 0.031 | 0.0547
UAAAAGCGAGGAUAUACAUGAGGAUCACCCAUGUGGGCAAAGUUCGCUAAGGUACCUAGUAGAAGGCGCGAAAU [Digeanin] (Eterna round: R97, puzzle: Exclusion 3) | 0.45 | – | 0.0633 | – | – | –
GCAAGAAUAGGAUAUACACCAUGCCAGCUUCUAUACAACGCACAUGAGGAUCACCCAUGUAGAAGGGUUCUCUG [Exclusion-2-#12] (Eterna round: R97, puzzle: Exclusion 2) | 0.225 | – | 0.262 | – | – | –
UGUUGUCGCGCAGGAUAUGAGGAUCACCCAUAUCAGGAUAUCGAAAGAGAAGUUCUGAGGAUCACCCAGAAGGGCGGGACAACU [pwkr exNG2 2xF5 2xFMN.33] (Eterna round: R96, puzzle: Exclusion NG 2) | 0.342 | 0.038 | 0.0478 | – | – | –
